Where a chain is given by its changes, count along the chain named.
T1: human GlyT1 (Homo sapiens, UniProt P48067)
T1 construct: gene SLC6A9; Sf9 cells; LMNG/CHS; purified with Cmpd1
T1 sequence (P48067 1-706): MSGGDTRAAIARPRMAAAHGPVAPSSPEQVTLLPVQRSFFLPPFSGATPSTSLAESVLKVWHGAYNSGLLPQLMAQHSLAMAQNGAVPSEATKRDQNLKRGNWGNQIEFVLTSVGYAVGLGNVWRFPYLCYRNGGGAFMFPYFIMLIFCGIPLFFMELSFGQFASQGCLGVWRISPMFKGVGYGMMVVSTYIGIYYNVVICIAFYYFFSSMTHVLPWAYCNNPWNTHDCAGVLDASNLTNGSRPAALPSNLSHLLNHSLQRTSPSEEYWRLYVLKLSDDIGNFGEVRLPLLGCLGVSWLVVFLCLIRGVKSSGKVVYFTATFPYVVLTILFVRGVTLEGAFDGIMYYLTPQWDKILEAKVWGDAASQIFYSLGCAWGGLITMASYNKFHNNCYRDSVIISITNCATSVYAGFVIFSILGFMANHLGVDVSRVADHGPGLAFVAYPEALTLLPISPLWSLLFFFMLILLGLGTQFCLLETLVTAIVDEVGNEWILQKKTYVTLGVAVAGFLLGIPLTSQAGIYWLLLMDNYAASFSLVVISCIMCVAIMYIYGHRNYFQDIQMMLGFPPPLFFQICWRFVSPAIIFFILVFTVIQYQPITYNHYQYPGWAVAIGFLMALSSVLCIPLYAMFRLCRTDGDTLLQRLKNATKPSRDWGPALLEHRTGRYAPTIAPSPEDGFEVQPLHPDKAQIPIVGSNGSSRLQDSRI

B1: Sb_GlyT1#5 (VHH)
VHH: QVQLVESGGGLVQAGGSLRLSCAASGFPVMNRWMAWYRQAPGKEREWVAAVASYGETTRYADSVKGRFTISRDNAKNTVYLQMNSLKPEDTAVYYCNVKDWGWWTRAYDYWGQGTQVTVS
B2: Sb_GlyT1#6 (VHH)
VHH: QVQLVESGGGLVQAGGSLRLSCAASGFPVVYYEMYWYRQAPGKEREWVAAITSSGWYTHYADSVKGRFTISRDNAKNTVYLQMNSLKPEDTAVYYCNVKDWGASWKQYDYWGQGTQVTVS
B3: Sb_GlyT1#7 (VHH)
VHH: B2 VHH with V30Y, Y31A, T52S, W56T, Y57W, T58A, H59G, K106A, Q107Y
B4: Sb_GlyT1#4 (VHH)
VHH: QVQLVESGGGLVQAGGSLRLSCAASGFPVYAYVMAWYRQAPGKEREWVAAIKSQGVSTYYADSVKGRFTISRDNAKNTVYLQMNSLKPEDTAVYYCYVYVGTSYTGQGTQVTVS
B5: Sb_GlyT1#3 (VHH)
VHH: QVQLVESGGGLVQAGGSLRLSCAASGFPVWNNGMAWYRQAPGKEREWVAAIASRGRSTVYADSVKGRFTISRDNAKNTVYLQMNSLKPEDTAVYYCYVNVGSHYEGQGTQVTVS
B6: Sb_GlyT1#1 (VHH)
VHH: QVQLVESGGGLVQAGGSLRLSCAASGFPVYYSHMLWYRQAPGKEREWVAAIKSLGAKTWYADSVKGRFTISRDNAKNTVYLQMNSLKPEDTAVYYCTVGVGTNYYGQGTQVTVS
B7: Sb_GlyT1#2 (VHH)
VHH: B6 VHH with Y31H, S32R, H33S, L54N, K57G, Y105W
B8: Sb_ENT1#1 (VHH)
VHH: QVQLVESGGGLVQAGGSLRLSCAASGFPVEYNTMYWYRQAPGKEREWVATIESWGWFTWYADSVKGRFTISRDNAKNTVYLQMNSLKPEDTAVYYCEVGVGHNYAGRGTQVTVS
notes: concave sybody; source: purified (Ni-NTA, SEC); not shown: Myc, C-terminal, kept

How the values were obtained:
human GlyT1 = target: T1, human GlyT1; assay type: binding; settings: 6 nM [3H]-Org24598, labelled compound, 4°C, LMNG; citrate pH 6.4 (buffer assignment by 'respectively'); with and without sybodies
GFP [GFP: P42212] = assay: pull-down; nanobody or sybody displayed on ribosomes (PUREfrexSS; 10^6 mRNA of 3K1K spiked into 10^12 mRNA of the non-randomized convex sybody), pulled down with biotinylated GFP or MBP immobilized on magnetic beads; retrieved mRNA reverse transcribed and quantified by qPCR against the input mRNA
Human GlyT1 (human) [1] = target: Human GlyT1 (human) (UniProt P48067); assay: SPR; Biacore T200, 18°C; biotinylated GlyT1 (about 300 RU) on SA sensor, sybody up to 2 µM as analyte; 20 mM Citrate pH 6.4, 150 mM NaCl, 0.004% LMNG; 50 µl/min; 1:1 model; single cycle for Sb_GlyT1#6; KD from kinetics or from equilibrium as the column says
Human GlyT1 (human) [2] = target: Human GlyT1 (human) (UniProt P48067)
Human ENT1(2–456) [3] = target: T2, Human ENT1(2–456) (Homo sapiens, UniProt Q99808, biotin on the Avi-tag (in vivo, co-transfected E. coli BirA); glycosylation reduced with PNGaseF and Endo-alpha-N-acetylgalactosaminidase); assay: cell-based or functional assay
T2 sequence (Q99808 2-456): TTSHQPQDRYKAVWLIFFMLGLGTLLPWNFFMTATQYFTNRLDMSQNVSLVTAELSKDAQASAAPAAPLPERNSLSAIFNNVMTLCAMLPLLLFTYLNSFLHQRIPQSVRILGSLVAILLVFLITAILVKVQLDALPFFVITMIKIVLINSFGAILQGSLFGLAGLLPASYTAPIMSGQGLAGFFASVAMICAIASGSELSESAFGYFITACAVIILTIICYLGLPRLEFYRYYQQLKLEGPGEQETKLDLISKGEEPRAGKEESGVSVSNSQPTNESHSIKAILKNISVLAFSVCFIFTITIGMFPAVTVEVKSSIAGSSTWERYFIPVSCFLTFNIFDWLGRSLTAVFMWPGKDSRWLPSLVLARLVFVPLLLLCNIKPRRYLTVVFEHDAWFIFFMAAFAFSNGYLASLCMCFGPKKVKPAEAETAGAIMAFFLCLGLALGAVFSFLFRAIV

Human ENT1(2–456) [4] = target: T2, Human ENT1(2–456); assay: SPR; Biacore T200, 18°C; biotinylated ENT1 (about 1000 RU) on SA sensor, sybody up to 475 nM as analyte; 20 mM HEPES pH 7.5, 150 mM NaCl, 0.001% LMNG, 1.25 µM DOPS; 50 µl/min; 1:1 model; settings: both partners purified

Molecule | Kd (Human GlyT1 (human) [1]) | koff (Human GlyT1 (human) [1]) | kon (Human GlyT1 (human) [1]) | SPA signal (fold increase) of [3H]-Org24598 binding at 19°C (Human GlyT1 (human) [2]) | ΔTm(SPA-TS): shift of the melting temperature of GlyT1, read by binding of [3H]-Org24598 (Human GlyT1 (human) [2]) | further results
CN(CC[C@@H](Oc1ccc(C(F)(F)F)cc1)c1ccccc1)CC(=O)O [Org24598] |  |  |  |  |  | scintillation proximity assay (SPA-TS) with [3H]-Org24598 (human GlyT1): SPA-TS analysis using the commercially available tritiated inhibitor Org24598
3K1K nanobody (VHH) |  |  |  |  |  | mRNA recovery (percent of input mRNA) (GFP [GFP: P42212]): 84.6%
B1 | 81.9 nM | 0.0372 s⁻¹ | 454000 M⁻¹ s⁻¹ | 1.5 fold | 2.6 °C | 
B2 | 0.494 nM | 4.99e-05 s⁻¹ | 100000 M⁻¹ s⁻¹ | 1.6 fold | 8.8 °C | 
B3 | 9.18 nM | 0.000185 s⁻¹ | 20100 M⁻¹ s⁻¹ | 1.8 fold | 10 °C | 
B4 | 476 nM |  |  | 1.5 fold | 2.1 °C | 
B5 | 154 nM |  |  | 1.1 fold | 1.7 °C | 
B6 | 307 nM | 0.0577 s⁻¹ | 188000 M⁻¹ s⁻¹ | 1.2 fold | 0.9 °C | 
B7 | 2520 nM | 0.0928 s⁻¹ | 36800 M⁻¹ s⁻¹ | 1.1 fold | 1.5 °C | 
B8 |  |  |  |  |  | SPA signal (fold increase) of [3H]-NBTI binding at 30.1°C (Human ENT1(2–456) [3]): 7 fold; ΔTm(SPA-TS): shift of the apparent melting temperature of ENT1, read by binding of [3H]-NBTI (Human ENT1(2–456) [3]): 6.1 °C; Kd (Human ENT1(2–456) [4]): 40 nM; koff (Human ENT1(2–456) [4]): 0.00744 s⁻¹; kon (Human ENT1(2–456) [4]): 186000 M⁻¹ s⁻¹

Reference: paper PMC5967865 (eLife, 2018)
